Experimental data taken from publication PMC9894248, “Alanine synthesized by alanine dehydrogenase enables ammonium-tolerant nitrogen fixation in Paenibacillus sabinae T27”.

Columns and labels:
AdeR [1] = molecular target: T1, AdeR (Paenibacillus sabinae T27, UniProt X4ZCB7 1-417); assay: EMSA; AdeR 100-600 nM; EMSA: 20 ul, 1 ug poly[d(A-T)], 0.3 nM probe, 30 min, 25 C; binding buffer (given for protein dialysis) 20 mM HEPES pH 7.6, 1 mM EDTA, 10 mM (NH4)2SO4, 1 mM DTT, 0.2% Tween 20, 30 mM KCl. SPR: SA chip, 250 RU DNA, GlnR 0-500 nM with or without 25 nM GS; settings: protein: recombinant; tags: N-His6; label: 3' DIG (Methods); blunt
T1 sequence: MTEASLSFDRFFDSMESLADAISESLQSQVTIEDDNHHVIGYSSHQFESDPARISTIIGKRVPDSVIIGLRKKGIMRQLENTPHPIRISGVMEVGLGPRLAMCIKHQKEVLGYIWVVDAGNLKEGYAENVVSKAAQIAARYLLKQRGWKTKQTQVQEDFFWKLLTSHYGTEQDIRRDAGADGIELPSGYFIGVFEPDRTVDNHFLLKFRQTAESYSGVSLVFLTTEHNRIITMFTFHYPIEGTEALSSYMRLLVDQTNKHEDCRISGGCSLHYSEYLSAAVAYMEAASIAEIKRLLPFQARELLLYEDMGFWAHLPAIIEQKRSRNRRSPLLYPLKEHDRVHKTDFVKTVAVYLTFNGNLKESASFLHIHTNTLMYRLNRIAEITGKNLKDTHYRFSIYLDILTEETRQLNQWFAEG

GlnR [2] = molecular target: T2, GlnR (Paenibacillus sabinae T27, UniProt X4ZZY3 1-136); assay: SPR; GlnR alone, 0-500 nM; affinity significantly higher than site II; EMSA: 20 ul, 1 ug poly[d(A-T)], 0.3 nM probe, 30 min, 25 C; binding buffer (given for protein dialysis) 20 mM HEPES pH 7.6, 1 mM EDTA, 10 mM (NH4)2SO4, 1 mM DTT, 0.2% Tween 20, 30 mM KCl. SPR: SA chip, 250 RU DNA, GlnR 0-500 nM with or without 25 nM GS; settings: protein: recombinant; tags: N-His6; chain copies: 2; label: 5' biotin on capture linker S3; 3' overhang 20 nt on strand 2, annealed to capture linker (strand 3)
T2 sequence: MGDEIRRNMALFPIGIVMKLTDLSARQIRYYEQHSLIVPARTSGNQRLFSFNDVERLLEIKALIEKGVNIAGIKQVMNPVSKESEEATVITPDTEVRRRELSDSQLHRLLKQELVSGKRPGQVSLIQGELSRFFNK

GlnR [3] = molecular target: T2, GlnR; assay: EMSA; GlnR 4-1024 nM; EMSA: 20 ul, 1 ug poly[d(A-T)], 0.3 nM probe, 30 min, 25 C; binding buffer (given for protein dialysis) 20 mM HEPES pH 7.6, 1 mM EDTA, 10 mM (NH4)2SO4, 1 mM DTT, 0.2% Tween 20, 30 mM KCl. SPR: SA chip, 250 RU DNA, GlnR 0-500 nM with or without 25 nM GS; settings: protein: recombinant; tags: N-His6; chain copies: 2; label: 3' DIG (Methods); blunt
AdeR [4] = molecular target: T1, AdeR; assay: EMSA; AdeR 100-600 nM; legend misprints 'mutated GlnR-binding site'; EMSA: 20 ul, 1 ug poly[d(A-T)], 0.3 nM probe, 30 min, 25 C; binding buffer (given for protein dialysis) 20 mM HEPES pH 7.6, 1 mM EDTA, 10 mM (NH4)2SO4, 1 mM DTT, 0.2% Tween 20, 30 mM KCl. SPR: SA chip, 250 RU DNA, GlnR 0-500 nM with or without 25 nM GS; settings: protein: recombinant; tags: N-His6; label: 3' DIG (Methods); blunt

B1: ald1 promoter 40-bp AdeR site (aldP1) (dsDNA)
DNA 1: GAATGAAAAACTGACCTTCTCATTGTGATAAAACACAATC
DNA 2: GATTGTGTTTTATCACAATGAGAAGGTCAGTTTTTCATTC
Q: Does B1 bind (AdeR [1])?
A: binds

B2: SPR probe GlnR site I (TS1) (dsDNA)
DNA 1: ATACATATGTGTAATGTAATCTGACATTTGTTTTGACGA
DNA 2: TCGTCAAAACAAATGTCAGATTACATTACACATATGTATCCTACCCTACGTCCTCCTGC
DNA 3: GCAGGAGGACGTAGGGTAGG
Q: Does B2 bind (GlnR [2])?
A: binds

B3: nif promoter GlnR site I EMSA probe (nifR1) (dsDNA)
DNA 1: AACGGAAACATGATACATATGTGTAATGTAATCTGACATTTGT
DNA 2: ACAAATGTCAGATTACATTACACATATGTATCATGTTTCCGTT
Q: Does B3 bind (GlnR [3])?
A: binds

B4: nif promoter GlnR site II EMSA probe (nifR2) (dsDNA)
DNA 1: TTTTCAAGAAAGGTTGGAGTCAGGTTAACTGACACGTCGGATG
DNA 2: CATCCGACGTGTCAGTTAACCTGACTCCAACCTTTCTTGAAAA
Q: Does B4 bind (GlnR [3])?
A: binds

B5: ald1 promoter 40-bp mutated AdeR site (aldP1M) (dsDNA)
DNA 1: GAATGAAAAACTGACCTTGGATCCGTGATAAAACACAATC
DNA 2: GATTGTGTTTTATCACGGATCCAAGGTCAGTTTTTCATTC
Q: Does B5 bind (AdeR [4])?
A: no binding
